Experimental data as given in patent US20210324061A1 (ARGENX BVBA, published 2021).
Where a chain is given by its changes, count along the chain named. Names may count otherwise. “And” between values parts separate entries of the source, which are not always exact repeats. Identical values can stand only once. Values belong to the binder of their own block, whether it stands above or below them.

How the values were obtained:
[1] = molecular target: T1, human GARP-TGF-β1 complex (recombinant complex of human GARP and latent human TGF-β1) (human, UniProt Q14392 20-627; P01137 30-278; P01137 279-390); experiment: SPR Biacore 3000, chip ~4000 RU hGARP-TGF-β; slope vs -20°C reference (=100%); sample stored 56 d at 37°C
T1 construct: also called huGARP-TGF-β1; hGARP-TGF-β1
T1 sequence (Q14392 20-627 limits assumed, chain 1 of 3): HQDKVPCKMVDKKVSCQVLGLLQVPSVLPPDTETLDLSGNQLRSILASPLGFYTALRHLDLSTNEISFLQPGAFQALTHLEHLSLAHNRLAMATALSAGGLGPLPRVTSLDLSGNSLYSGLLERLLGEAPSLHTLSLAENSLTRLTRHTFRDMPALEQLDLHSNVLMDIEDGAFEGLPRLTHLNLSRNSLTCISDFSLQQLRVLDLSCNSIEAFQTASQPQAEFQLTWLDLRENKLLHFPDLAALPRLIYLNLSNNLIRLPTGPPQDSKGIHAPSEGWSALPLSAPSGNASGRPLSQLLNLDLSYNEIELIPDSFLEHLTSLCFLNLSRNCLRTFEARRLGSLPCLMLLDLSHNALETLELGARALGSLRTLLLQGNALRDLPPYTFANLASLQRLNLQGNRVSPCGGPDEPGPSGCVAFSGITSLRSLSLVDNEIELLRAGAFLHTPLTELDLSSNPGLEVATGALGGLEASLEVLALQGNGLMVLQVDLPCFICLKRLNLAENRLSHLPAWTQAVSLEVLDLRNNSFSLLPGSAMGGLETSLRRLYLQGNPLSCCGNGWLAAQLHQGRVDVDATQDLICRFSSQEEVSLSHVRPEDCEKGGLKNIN
T1 sequence (P01137 30-278 limits assumed, chain 2 of 3): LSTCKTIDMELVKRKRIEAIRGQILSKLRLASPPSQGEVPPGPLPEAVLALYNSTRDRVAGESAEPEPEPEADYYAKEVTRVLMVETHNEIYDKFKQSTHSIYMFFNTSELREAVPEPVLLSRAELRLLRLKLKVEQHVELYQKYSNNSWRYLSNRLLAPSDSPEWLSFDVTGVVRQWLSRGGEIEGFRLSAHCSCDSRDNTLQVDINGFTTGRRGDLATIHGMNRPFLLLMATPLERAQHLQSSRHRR
T1 sequence (P01137 279-390 limits assumed, chain 3 of 3): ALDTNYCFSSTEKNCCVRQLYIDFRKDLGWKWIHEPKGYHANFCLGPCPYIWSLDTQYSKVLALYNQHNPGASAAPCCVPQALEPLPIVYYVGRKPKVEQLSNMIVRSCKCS
Method: (§1) From the intermediate concentration of all samples at 1 mg/ml described above, an extra 1/250 dilution was done for SPR analysis to yield a final concentration of 4 μg/ml. This 1/250 dilution took place for all conditions in two steps: a) 5 μl (1 mg/ml)+120 μl HBS-EP (SPR buffer) and b) an extra 10× dilution (15 μl+135 μl HBS-EP). For each antibody and each time point, a separate standard curve was prepared, starting from a −80° C. frozen sample. This was analyzed together with the stability samples to determine the slope of each curve after general fitting of the standards. These slopes were used to calculate the percent activity of the stability samples by setting the reference sample at 100%.
(§2) To determine the target binding activity in Biacore, a CM5 chip was coated with ˜4000 RU human GARP-TGF-β complex. Flow was set to 30 μl/min with a “kinject” injection mode and two regeneration injections (1 mM NaCl, 2.5 mM glycine pH 1.5) with a 5 min interval.
(§3) Open the curves in the BIAEVAL program and select value ‘2-1’ (1: blank, 2 hGARP-TGF-β1) [0263] Select one curve at the time for plot overlay [0264] Delete the regeneration part of the curve [0265] Select the baseline just before the injection and transform the Y-axis for ‘zero at median of selection’ [0266] Select ‘General Fit’, starting from 120 sec after injecting and ending at 155 sec [0267] Plot the standards in Excel and determine the slope of the curve for each antibody [0268] These values are converted to a percent activity by setting the reference (sample stored at −20° C.) at 100%

[2] = molecular target: T1, human GARP-TGF-β1 complex (recombinant …); experiment: SPR Biacore 3000, chip ~4000 RU hGARP-TGF-β; slope vs -20°C reference (=100%); sample stored 28 d at 5°C
Method: as §1, §2, §3

[3] = molecular target: T1, human GARP-TGF-β1 complex (recombinant …); experiment: SPR Biacore 3000, chip ~4000 RU hGARP-TGF-β; slope vs -20°C reference (=100%); sample stored 56 d at 5°C
Method: as §1, §2, §3

[4] = molecular target: T1, human GARP-TGF-β1 complex (recombinant …); experiment: SPR Biacore 3000, chip ~4000 RU hGARP-TGF-β; slope vs -20°C reference (=100%); sample stored 28 d at 37°C
Method: as §1, §2, §3

[5] = molecular target: T1, human GARP-TGF-β1 complex (recombinant …); experiment: SPR Biacore 3000, chip ~4000 RU hGARP-TGF-β; slope vs -20°C reference (=100%); sample 0 d, 37°C arm
Method: as §1, §2, §3

[6] = molecular target: T1, human GARP-TGF-β1 complex (recombinant …); experiment: SPR Biacore 3000, chip ~4000 RU hGARP-TGF-β; slope vs -20°C reference (=100%); sample 0 d, 5°C arm
Method: as §1, §2, §3

[7] = molecular target: T1, human GARP-TGF-β1 complex (recombinant …); experiment: SPR Biacore T200, CM5 chip coated with the antibody at 200 RU, complex in solution
Method: (§4) The affinity of all antibodies (including 39B6-A) for GARP-TGF-β1 was tested by BiacoreT200 using a CM5 chip coated with GARP-TGF-β1 complex at 150RU (Table 17) or coated with the antibodies at 200RU (Table 17)

[8] = molecular target: T1, human GARP-TGF-β1 complex (recombinant …); experiment: SPR Biacore T200, CM5 chip coated with GARP-TGF-β1 complex at 150 RU
Method: as §4

[9] = molecular target: T1, human GARP-TGF-β1 complex (recombinant …); experiment: SPR Biacore T200, CM5 chip coated with the antibody at 1000 RU, complex in solution
Method: (§5) Clone 39B6 was selected as the lead germlined clone based on its binding characteristics. This antibody was produced in two effector function deficient formats, hlgG1^N297Q and hlgG4^S228P, and stability tests were carried out. Prior to the stability testing, the affinity of the effector deficient 39B6 antibodies for GARP-TGF-β1 was tested by BiacoreT200 using a CM5 chip coated with GARP-TGF-β1 complex at 750RU (Table 14) or coated with the antibodies at 1000RU (Table 15).

[10] = molecular target: T1, human GARP-TGF-β1 complex (recombinant …); experiment: SPR Biacore T200, CM5 chip coated with GARP-TGF-β1 complex at 750 RU
Method: as §5

[11] = molecular target: T1, human GARP-TGF-β1 complex (recombinant …); experiment: SPR, mAb on human GARP-TGF-β1 complex
Text: The five germlined clones reformatted to human IgG1 were produced by transient transfection in HEK 293E cells.

[12] = molecular target: T1, human GARP-TGF-β1 complex (recombinant …); experiment: SPR, Fab off-rate on human GARP-TGF-β1 complex
[13] = molecular target: T2, complex of recombinant GARP and recombinant LAP (human, UniProt Q14392 20-627; P01137 30-278); experiment: ELISA in two orientations: GARP coated and LAP captured; or ARGX-115 coated, GARP then LAP added, detected with anti-LAP-HRP
T2 construct: Formed on the ELISA plate; It contains no mature TGF-β; also called GARP-LAP complex
T2 sequence (Q14392 20-627 limits assumed, chain 1 of 2): as the sequence (Q14392 20-627 limits assumed, chain 1 of 3) above
T2 sequence (P01137 30-278 limits assumed, chain 2 of 2): as the sequence (P01137 30-278 limits assumed, chain 2 of 3) above
Method: For ELISA plates coated with GARP, a complex with either full-length latent TGF-β (including both the LAP and mature TGF-β regions) or a complex with recombinant LAP was allowed to form by the addition of the relevant recombinant protein. […] In contrast, an anti-LAP antibody was able to bind to the GARP-LAP complex.
An ELISA plate was coated with recombinant GARP (1 μg/mL O/N 4° C.), blocked with blocking agent (casein-PBS), and LAP (5 μg/mL) was captured on the coated recombinant GARP. LAP binding was detected with anti-LAP-HRP.

B1: 39B6-ANK IgG4 S228P (antibody, V domains shown)
VH: QVQLVQPGAEVRKPGASVKVSCKASGYRFTSYYIDWVRQAPGQGLEWMGRIDPEDAGTKYAQKFQGRVTMTADTSTSTVYVELSSLRSEDTAVYYCARNKWETVVVGDLMYEYEYWGQGTLVTVSS
VL: DIQMTQSPSSLSASVGDRVTITCQASQSISSYLAWYQQKPGQAPKILIYGASRLKTGVPSRFSGSGSGTSFTLTISSLEPEDAATYYCQQYASVPVTFGQGTKVEIKR
notes: Variant of 39B6-A in IgG4 S228P format; Positions are Kabat-type
Activity on Biacore (%) [1]: 62.4%
Activity on Biacore (%) [2]: 101%
Activity on Biacore (%) [3]: 101%
Activity on Biacore (%) [4]: 77.8%
Activity on Biacore (%) [5]: 130%
Activity on Biacore (%) [6]: 130%
Fold-difference (KD vs 39B6-A) [7]: 1.5 fold
Kd [7]: 2020 pM
Fold-difference (KD vs 39B6-A) [8]: 0.9 fold
Kd [8]: 880 pM

B4: 39B6 IgG1-N297Q (antibody, V domains shown)
VH: B1 VH with A56G, K100E
VL: DIQMTQSPSSLSASVGDRVTITCQASQSISSYLAWYQQKPGQAPKILIYGASRLKTGVPSRFSGSGSGTSFTLTISSLEPEDAATYYCQQYASVPVTFGQGTKVEIK
notes: Effector-deficient format hIgG1 N297Q; The second row may be the IgG4 S228P form; Both rows are written here as printed
Kd [9]: 1230 pM and 1020 pM

B6: 39B6-AVE IgG4 S228P (antibody, V domains shown)
VH: B1 VH with N99V, K100E
VL: B1 VL
notes: as for B1
Activity on Biacore (%) [1]: 31.3%
Activity on Biacore (%) [2]: 99%
Activity on Biacore (%) [3]: 96.9%
Activity on Biacore (%) [4]: 68%
Activity on Biacore (%) [5]: 99.5%
Activity on Biacore (%) [6]: 99.5%
Fold-difference (KD vs 39B6-A) [7]: 1 fold
Kd [7]: 1290 pM
Fold-difference (KD vs 39B6-A) [8]: 0.9 fold
Kd [8]: 894 pM

B7: 39B6-ANR IgG4 S228P (antibody, V domains shown)
VH: B1 VH with K100R
VL: B1 VL
notes: as for B1
Activity on Biacore (%) [1]: 46.3%
Activity on Biacore (%) [2]: 129%
Activity on Biacore (%) [3]: 85.4%
Activity on Biacore (%) [4]: 85.4%
Activity on Biacore (%) [5]: 101%
Activity on Biacore (%) [6]: 101%
Fold-difference (KD vs 39B6-A) [7]: 1.5 fold
Kd [7]: 1940 pM
Fold-difference (KD vs 39B6-A) [8]: 0.9 fold
Kd [8]: 884 pM

B8: 39B6-AYE (ARGX-115), IgG4 S228P (antibody, V domains shown)
VH: B1 VH with N99Y, K100E
VL: B1 VL
Activity on Biacore (%) [1]: 104%
Activity on Biacore (%) [2]: 96.7%
Activity on Biacore (%) [3]: 104%
Activity on Biacore (%) [4]: 96.1%
Activity on Biacore (%) [5]: 93.5%
Activity on Biacore (%) [6]: 93.5%
binding result [13]: no binding
Fold-difference (KD vs 39B6-A) [7]: 1.2 fold
Kd [7]: 1620 pM
Fold-difference (KD vs 39B6-A) [8]: 0.8 fold
Kd [8]: 763 pM

Second part, the binder after the results:

Fold-difference (KD vs LHG10.6) [9]: 1 fold
Kd [9]: 534 pM
Fold-difference (KD vs LHG10.6) [10]: 1 fold
Kd [10]: 819 pM
B2: LHG10.6 IgG1-N297Q (antibody, V domains shown)
VH: B1 VH with Q1E, V11L, K13N, P14S, A56G, M70F, V79A, K100E, L121Q
VL: B4 VL with V15L, K45N, S77G, P80A, A84G, I106L

Kd [11]: 100 pM
fold difference (KD vs 17H5) [11]: 1 fold
Fold-difference (KD vs 39B6-A) [8]: 0.5 fold
Kd [8]: 517 pM
B3: LHG-10.6 monoclonal antibody (17H5 mAb), isotype not stated (antibody, V domains shown)
VH: B1 VH with Q1E, V11L, K13N, P14S, A56G, M70F, V79A, K100E, L121Q
VL: B4 VL with V15L, K45N, S77G, P80A, A84G, I106L

koff [12]: 0.000201 s⁻¹
B5: Fab 17H5 (Fab of LHG-10.6) (Fab, V domains shown)
VH: B1 VH with Q1E, V11L, K13N, P14S, A56G, M70F, V79A, K100E, L121Q
VL: B4 VL with V15L, K45N, S77G, P80A, A84G, I106L
notes: Parental, non-germlined Fab
